Reference: patent US20250145684A1 (IMMATICS BIOTECHNOLOGIES, published 2025)

target: T1, HLA-B*08:01 (human); assay: UV peptide exchange ELISA
T1 construct: MHC monomer first loaded with a UV-sensitive peptide that is cleaved by UV light and exchanged for the test peptide
Excerpt: Candidate peptides for T cell based therapies according to the present invention were further tested for their MHC binding capacity (affinity). The individual peptide-MHC complexes were produced by UV-ligand exchange, where a UV-sensitive peptide is cleaved upon UV-irradiation and exchanged with the peptide of interest as analyzed. Only peptide candidates that can effectively bind and stabilize the peptide-receptive MHC molecules prevent dissociation of the MHC complexes. To determine the yield of the exchange reaction, an ELISA was performed based on the detection of the light chain (β2m) of stabilized MHC complexes. The assay was performed as generally described in Rodenko et al. (Rodenko et al., 2006).
96 well MAXISorp plates (NUNC) were coated over night with 2 ug/ml streptavidin in PBS at room temperature, washed 4× and blocked for 1 h at 37° C. in 2% BSA containing blocking buffer. Refolded HLA-A*02:01/MLA-001 monomers served as standards, covering the range of 15-500 ng/ml. Peptide-MHC monomers of the UV-exchange reaction were diluted 100-fold in blocking buffer. Samples were incubated for 1 h at 37° C., washed four times, incubated with 2 ug/ml HRP conjugated anti-β2m for 1 h at 37° C., washed again and detected with TMB solution that is stopped with […]. Absorption was measured at 450 nm. Candidate peptides that show a high exchange yield (preferably higher than 50%, most preferred higher than 75%) are generally preferred for a generation and production of antibodies or fragments thereof, and/or T cell receptors or fragments thereof, as they show sufficient avidity to the MHC molecules and prevent dissociation of the MHC complexes.

Q: For QIMPKAGL [QIMPKAGL (SEQ ID NO: 2)], which peptide exchange yield is on record?
A: 50 to 75%

Q: How did the peptide exchange yield turn out when LAVPIFVAL [LAVPIFVAL (SEQ ID NO: 180)] was run?
A: 20 to 50%

Q: How did the peptide exchange yield turn out when LSLVRKAL [LSLVRKAL (SEQ ID NO: 18)] was run?
A: 50 to 75%

Q: How did the peptide exchange yield turn out when FTLLRRLSL [FTLLRRLSL (SEQ ID NO: 19)] was run?
A: 50 to 75%

Q: Which peptide exchange yield does the source give for EVMAQFKEI [EVMAQFKEI (SEQ ID NO: 163)] here?
A: 20 to 50%

Q: For DVYTQVSAF [DVYTQVSAF (SEQ ID NO: 203)], which peptide exchange yield is on record?
A: 20 to 50%

Q: For LAVRHLSL [LAVRHLSL (SEQ ID NO: 220)], which peptide exchange yield is on record?
A: 20 to 50%

Q: Which peptide exchange yield does the source give for APDNVLLTL [APDNVLLTL (SEQ ID NO: 189)] here?
A: 20 to 50%

Q: With LDLRQKVL [LDLRQKVL (SEQ ID NO: 196)] as the binder, how does the peptide exchange yield read?
A: 20 to 50%

Q: How did the peptide exchange yield turn out when LPAPIPTLL [LPAPIPTLL (SEQ ID NO: 164)] was run?
A: 20 to 50%

Q: For EEKHFTTL [EEKHFTTL (SEQ ID NO: 192)], which peptide exchange yield is on record?
A: 20 to 50%

Q: ETIKGHSVRL [ETIKGHSVRL (SEQ ID NO: 217)] was tested. Which peptide exchange yield did it give?
A: 20 to 50%

Q: How did the peptide exchange yield turn out when FPLTSIIAI [FPLTSIIAI (SEQ ID NO: 198)] was run?
A: 50 to 75%

Q: Which peptide exchange yield does the source give for YKAYPSQL [YKAYPSQL (SEQ ID NO: 197)] here?
A: 20 to 50%

Q: Which peptide exchange yield does the source give for MSPLLRSI [MSPLLRSI (SEQ ID NO: 204)] here?
A: 20 to 50%

Q: With YELNNLHAL [YELNNLHAL (SEQ ID NO: 169)] as the binder, how does the peptide exchange yield read?
A: 20 to 50%

Q: For SRFGKFVQL [SRFGKFVQL (SEQ ID NO: 209)], which peptide exchange yield is on record?
A: 20 to 50%

Q: How did the peptide exchange yield turn out when DVISKGVSL [DVISKGVSL (SEQ ID NO: 211)] was run?
A: 20 to 50%

Q: How did the peptide exchange yield turn out when ILHLSAIAL [ILHLSAIAL (SEQ ID NO: 182)] was run?
A: ≥ 75%

Q: How did the peptide exchange yield turn out when IPFIHLPEI [IPFIHLPEI (SEQ ID NO: 199)] was run?
A: 20 to 50%

Q: IPRLAVISI [IPRLAVISI (SEQ ID NO: 178)] was tested. Which peptide exchange yield did it give?
A: 20 to 50%

Q: Which peptide exchange yield does the source give for RPLKPGEVL [RPLKPGEVL (SEQ ID NO: 191)] here?
A: 20 to 50%

Q: With DMKITVSL [DMKITVSL (SEQ ID NO: 167)] as the binder, how does the peptide exchange yield read?
A: 50 to 75%

Q: DRLKPLKM [DRLKPLKM (SEQ ID NO: 184)] was tested. Which peptide exchange yield did it give?
A: 20 to 50%

Q: With LRKRKSPE [LRKRKSPE (SEQ ID NO: 207)] as the binder, how does the peptide exchange yield read?
A: 20 to 50%

Q: How did the peptide exchange yield turn out when EARPPSPAV [EARPPSPAV (SEQ ID NO: 216)] was run?
A: 20 to 50%

Q: With PYEKVSRL [PYEKVSRL (SEQ ID NO: 172)] as the binder, how does the peptide exchange yield read?
A: 20 to 50%

Q: Which peptide exchange yield does the source give for LLILKTVL [LLILKTVL (SEQ ID NO: 17)] here?
A: 50 to 75%

Q: DAPRHRLL [DAPRHRLL (SEQ ID NO: 214)] was tested. Which peptide exchange yield did it give?
A: 20 to 50%

Q: Which peptide exchange yield does the source give for VRNPKILIL [VRNPKILIL (SEQ ID NO: 219)] here?
A: 20 to 50%

Q: Which peptide exchange yield does the source give for YVSKPGAQL [YVSKPGAQL (SEQ ID NO: 183)] here?
A: 20 to 50%

Q: AQKAELIAL [AQKAELIAL (SEQ ID NO: 222)] was tested. Which peptide exchange yield did it give?
A: 20 to 50%

Q: For SLKEELLSL [SLKEELLSL (SEQ ID NO: 221)], which peptide exchange yield is on record?
A: 50 to 75%

Q: How did the peptide exchange yield turn out when TASAMQHVL [TASAMQHVL (SEQ ID NO: 201)] was run?
A: 50 to 75%

Q: Which peptide exchange yield does the source give for MELKTVKPI [MELKTVKPI (SEQ ID NO: 185)] here?
A: 20 to 50%

Q: With VLSGGRILAL [VLSGGRILAL (SEQ ID NO: 166)] as the binder, how does the peptide exchange yield read?
A: 20 to 50%

Q: For EVRLKPIL [EVRLKPIL (SEQ ID NO: 22)], which peptide exchange yield is on record?
A: 20 to 50%

Q: With RAIEHVLQV [RAIEHVLQV (SEQ ID NO: 194)] as the binder, how does the peptide exchange yield read?
A: 50 to 75%

Q: With HVQDFTAF [HVQDFTAF (SEQ ID NO: 168)] as the binder, how does the peptide exchange yield read?
A: 20 to 50%

Q: With FPSQVPKQVL [FPSQVPKQVL (SEQ ID NO: 171)] as the binder, how does the peptide exchange yield read?
A: 20 to 50%

Q: YMQYGFLSM [YMQYGFLSM (SEQ ID NO: 205)] was tested. Which peptide exchange yield did it give?
A: 20 to 50%

Q: How did the peptide exchange yield turn out when ELLNRIYF [ELLNRIYF (SEQ ID NO: 190)] was run?
A: 20 to 50%

Q: With RIPEKASFL [RIPEKASFL (SEQ ID NO: 202)] as the binder, how does the peptide exchange yield read?
A: 20 to 50%

Q: For VPYNSVLF [VPYNSVLF (SEQ ID NO: 187)], which peptide exchange yield is on record?
A: 20 to 50%

Q: Which peptide exchange yield does the source give for EEYKFPSL [EEYKFPSL (SEQ ID NO: 212)] here?
A: 20 to 50%

Q: Which peptide exchange yield does the source give for DNHPRLVTL [DNHPRLVTL (SEQ ID NO: 218)] here?
A: 50 to 75%

Q: With QPNTHQLL [QPNTHQLL (SEQ ID NO: 210)] as the binder, how does the peptide exchange yield read?
A: 20 to 50%

Q: Which peptide exchange yield does the source give for LGGLRLTAL [LGGLRLTAL (SEQ ID NO: 193)] here?
A: 20 to 50%

Q: Which peptide exchange yield does the source give for DLISPRQPRL [DLISPRQPRL (SEQ ID NO: 186)] here?
A: 20 to 50%

Q: MRFQQFLFA [MRFQQFLFA (SEQ ID NO: 175)] was tested. Which peptide exchange yield did it give?
A: 10 to 20%

Q: Which peptide exchange yield does the source give for YPLLKDPSL [YPLLKDPSL (SEQ ID NO: 173)] here?
A: 50 to 75%

Q: How did the peptide exchange yield turn out when ILKRFLAC [ILKRFLAC (SEQ ID NO: 20)] was run?
A: 50 to 75%

Q: For HAMPSPRIL [HAMPSPRIL (SEQ ID NO: 174)], which peptide exchange yield is on record?
A: 20 to 50%

Q: Which peptide exchange yield does the source give for EIMEKTTL [EIMEKTTL (SEQ ID NO: 188)] here?
A: 20 to 50%

Q: How did the peptide exchange yield turn out when MEFPNKFNTL [MEFPNKFNTL (SEQ ID NO: 206)] was run?
A: 20 to 50%

Q: VAAARAVPV [VAAARAVPV (SEQ ID NO: 200)] was tested. Which peptide exchange yield did it give?
A: 20 to 50%

Q: How did the peptide exchange yield turn out when RILKRFLAC [RILKRFLAC (SEQ ID NO: 21)] was run?
A: 50 to 75%

Q: LPPPQPLSL [LPPPQPLSL (SEQ ID NO: 208)] was tested. Which peptide exchange yield did it give?
A: 20 to 50%

Q: With SPANVRGQSL [SPANVRGQSL (SEQ ID NO: 170)] as the binder, how does the peptide exchange yield read?
A: 20 to 50%

Q: With LPLTEHEL [LPLTEHEL (SEQ ID NO: 179)] as the binder, how does the peptide exchange yield read?
A: 50 to 75%

Q: How did the peptide exchange yield turn out when NPLIEIISI [NPLIEIISI (SEQ ID NO: 215)] was run?
A: 20 to 50%

Q: With EGNQKSVI [EGNQKSVI (SEQ ID NO: 195)] as the binder, how does the peptide exchange yield read?
A: 20 to 50%

Q: Which peptide exchange yield does the source give for SIRSSYSRF [SIRSSYSRF (SEQ ID NO: 181)] here?
A: 20 to 50%

Q: FPSLFINQF [FPSLFINQF (SEQ ID NO: 213)] was tested. Which peptide exchange yield did it give?
A: 20 to 50%

Q: For LFKQTKINL [LFKQTKINL (SEQ ID NO: 162)], which peptide exchange yield is on record?
A: 20 to 50%

Q: Which peptide exchange yield does the source give for SVPVRSSPL [SVPVRSSPL (SEQ ID NO: 177)] here?
A: 20 to 50%

Q: QNSLRHNL [QNSLRHNL (SEQ ID NO: 165)] was tested. Which peptide exchange yield did it give?
A: 20 to 50%

Q: How did the peptide exchange yield turn out when YVIQRQSVL [YVIQRQSVL (SEQ ID NO: 176)] was run?
A: 20 to 50%
